Here are results for two substances from publication PMC8913300, “Two distinct classes of cochaperones compete for the EEVD motif in heat shock protein 70 to tune its chaperone activities” (The Journal of Biological Chemistry, 2022).

For test [1], the target named is Hsp70 EEVD motif (Homo sapiens) (UniProt P0DMV8). The note with it: cited from earlier work.
The target of test [2] is Hsp72 tracer FITC-Ahx-…. Kind of test: fluorescence polarisation; saturation binding; 20 nM fluorescent Hsp72 tracer, J-domain protein titrated in 2x dilutions (110-0.013 μM told for DnaJB4); 50 mM Tris, 15 mM NaCl, 1 mM DTT, 0.01% Triton X-100, pH 8.0; 30 min at room temperature. In general terms: In fluorescence polarisation assays a small probe gives low polarisation when free and higher when bound to something large.

Sequence of DnaJB1 CTD I (P25685 161-243): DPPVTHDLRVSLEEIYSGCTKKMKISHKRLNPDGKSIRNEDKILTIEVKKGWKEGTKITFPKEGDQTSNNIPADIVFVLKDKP
Sequence of Hsp70 EEVD motif (Homo sapiens) (P0DMV8 whole entry, looked up): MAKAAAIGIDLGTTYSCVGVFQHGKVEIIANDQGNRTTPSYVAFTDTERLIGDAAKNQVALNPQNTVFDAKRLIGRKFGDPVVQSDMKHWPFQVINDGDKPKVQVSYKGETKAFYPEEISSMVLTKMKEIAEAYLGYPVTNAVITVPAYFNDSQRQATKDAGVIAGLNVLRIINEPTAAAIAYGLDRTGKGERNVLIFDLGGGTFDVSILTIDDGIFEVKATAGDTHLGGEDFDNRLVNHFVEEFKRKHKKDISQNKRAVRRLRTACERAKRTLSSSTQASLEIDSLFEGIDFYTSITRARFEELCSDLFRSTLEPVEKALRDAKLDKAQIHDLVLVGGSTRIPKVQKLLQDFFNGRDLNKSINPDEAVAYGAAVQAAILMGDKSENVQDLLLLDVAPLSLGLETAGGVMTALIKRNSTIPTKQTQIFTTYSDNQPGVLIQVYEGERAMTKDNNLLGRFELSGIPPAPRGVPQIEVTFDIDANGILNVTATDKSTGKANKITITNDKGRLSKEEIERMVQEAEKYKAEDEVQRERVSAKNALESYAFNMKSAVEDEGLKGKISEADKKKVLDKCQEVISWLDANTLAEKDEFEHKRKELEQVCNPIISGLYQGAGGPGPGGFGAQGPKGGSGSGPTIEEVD

Broadly, the Kd is the free concentration of one partner at which half of the binding sites on the other are occupied at equilibrium, for simple one-to-one binding. For the substance DnaJB1 CTD I (from UniProt P25685), the Kd in test [1] is 15 µM.
As for “DnaJB4 QPD mutant (from UniProt Q9UDY4 1-337) (natural protein)”, in test [2], the Kd was determined as 2.44 µM.
